From paper PMC10397247
Values belong to the binder of their own block, whether it stands above or below them.

How the values were obtained:
4H3855-bH = biological target: T1, 4H3855-bH; assay: two-hybrid library CCNG1;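 note: natural log of median RNA to DNA barcode read ratio; higher means stronger binding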
T1 chain: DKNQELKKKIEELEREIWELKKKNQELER

4H3354-bH = biological target: T2, 4H3354-bH; assay: two-hybrid library CCNG1;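 note: natural log of median RNA to DNA barcode read ratio; higher means stronger binding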
T2 chain: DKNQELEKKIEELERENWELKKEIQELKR

4H72-bH = biological target: T3, 4H72-bH; assay: two-hybrid library CCNG1;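 note: natural log of median RNA to DNA barcode read ratio; higher means stronger binding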
T3 chain: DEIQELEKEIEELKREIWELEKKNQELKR

4H797-bH = biological target: T4, 4H797-bH; assay: two-hybrid library CCNG1;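 note: natural log of median RNA to DNA barcode read ratio; higher means stronger binding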
T4 chain: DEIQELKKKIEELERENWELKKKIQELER

4H967-bH = biological target: T5, 4H967-bH; assay: two-hybrid library CCNG1;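 note: natural log of median RNA to DNA barcode read ratio; higher means stronger binding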
T5 chain: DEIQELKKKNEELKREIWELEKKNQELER

4H568-bH = biological target: T6, 4H568-bH; assay: two-hybrid library CCNG1;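 note: natural log of median RNA to DNA barcode read ratio; higher means stronger binding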
T6 chain: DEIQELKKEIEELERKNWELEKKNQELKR

4H4001-bN = biological target: T7, 4H4001-bN; assay: two-hybrid library CCNG1
T7 chain: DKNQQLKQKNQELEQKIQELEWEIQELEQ

4H908-bH = biological target: T8, 4H908-bH; assay: two-hybrid library CCNG1
T8 chain: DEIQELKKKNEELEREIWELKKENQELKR

4H953-bH = biological target: T9, 4H953-bH; assay: two-hybrid library CCNG1
T9 chain: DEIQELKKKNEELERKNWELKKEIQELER

4H331-bH = biological target: T10, 4H331-bH; assay: two-hybrid library CCNG1
T10 chain: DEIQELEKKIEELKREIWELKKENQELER

4H883-bH = biological target: T11, 4H883-bH; assay: two-hybrid library CCNG1
T11 chain: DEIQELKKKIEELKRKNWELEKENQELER

4H454-bH = biological target: T12, 4H454-bH; assay: two-hybrid library CCNG1
T12 chain: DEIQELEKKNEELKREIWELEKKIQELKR

4H607-bH = biological target: T13, 4H607-bH; assay: two-hybrid library CCNG1
T13 chain: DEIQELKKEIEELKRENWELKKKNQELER

4H3427-bH = biological target: T14, 4H3427-bH; assay: two-hybrid library CCNG1
T14 chain: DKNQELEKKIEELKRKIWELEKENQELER

4H3782-bH = biological target: T15, 4H3782-bH; assay: two-hybrid library CCNG1
T15 chain: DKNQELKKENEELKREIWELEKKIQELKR

4H3185-bH = biological target: T16, 4H3185-bH; assay: two-hybrid library CCNG1
T16 chain: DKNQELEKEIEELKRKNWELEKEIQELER

4H338-bH = biological target: T17, 4H338-bH; assay: two-hybrid library CCNG1
T17 chain: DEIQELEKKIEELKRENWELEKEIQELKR

4H717-bH = biological target: T18, 4H717-bH; assay: two-hybrid library CCNG1
T18 chain: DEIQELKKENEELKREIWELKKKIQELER

4H687-bH = biological target: T19, 4H687-bH; assay: two-hybrid library CCNG1
T19 chain: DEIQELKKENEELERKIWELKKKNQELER

4H918-bH = biological target: T20, 4H918-bH; assay: two-hybrid library CCNG1
T20 chain: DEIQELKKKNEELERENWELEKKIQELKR

4H754-bH = biological target: T21, 4H754-bH; assay: two-hybrid library CCNG1
T21 chain: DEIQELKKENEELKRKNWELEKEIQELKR

P8A-bH = biological target: T22, P8A-bH; assay: two-hybrid library CCNG1
T22 chain: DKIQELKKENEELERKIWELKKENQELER

P9A-bH = biological target: T23, P9A-bH; assay: two-hybrid library CCNG1
T23 chain: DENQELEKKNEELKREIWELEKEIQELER

P8A-bA = biological target: T24, P8A-bA; assay: two-hybrid library CCNG1
T24 chain: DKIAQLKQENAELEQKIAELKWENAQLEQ

P9A-bA = biological target: T25, P9A-bA; assay: two-hybrid library CCNG1
T25 chain: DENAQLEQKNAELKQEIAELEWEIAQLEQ

APC9319-AA = biological target: T26, APC9319-AA; assay: two-hybrid library CCmax; conditions: mean of both orientations
T26 chain: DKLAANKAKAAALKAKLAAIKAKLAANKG

APC8191-AA = biological target: T27, APC8191-AA; assay: two-hybrid library CCmax; conditions: mean of both orientations
T27 chain: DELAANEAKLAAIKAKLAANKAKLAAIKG

APC4436-AA = biological target: T28, APC4436-AA; assay: two-hybrid library CCmax; conditions: mean of both orientations
T28 chain: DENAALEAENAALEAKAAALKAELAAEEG

APC6108-AA = biological target: T29, APC6108-AA; assay: two-hybrid library CCmax; conditions: mean of both orientations
T29 chain: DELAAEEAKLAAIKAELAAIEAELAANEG

APC9096-AA = biological target: T30, APC9096-AA; assay: two-hybrid library CCmax; conditions: mean of both orientations
T30 chain: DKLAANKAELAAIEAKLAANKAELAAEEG

APC8910-AA = biological target: T31, APC8910-AA; assay: two-hybrid library CCmax; conditions: mean of both orientations
T31 chain: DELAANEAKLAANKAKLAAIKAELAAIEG

APC232-AA = biological target: T32, APC232-AA; assay: two-hybrid library CCmax; conditions: mean of both orientations
T32 chain: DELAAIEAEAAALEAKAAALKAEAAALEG

APC2405-AA = biological target: T33, APC2405-AA; assay: two-hybrid library CCmax; conditions: mean of both orientations
T33 chain: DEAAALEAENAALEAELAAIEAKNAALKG

APC4011-AA = biological target: T34, APC4011-AA; assay: two-hybrid library CCmax; conditions: mean of both orientations
T34 chain: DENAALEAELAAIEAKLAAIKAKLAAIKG

APC3645-AA = biological target: T35, APC3645-AA; assay: two-hybrid library CCmax; conditions: mean of both orientations
T35 chain: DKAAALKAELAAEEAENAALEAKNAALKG

APC7099-AA = biological target: T36, APC7099-AA; assay: two-hybrid library CCmax; conditions: mean of both orientations
T36 chain: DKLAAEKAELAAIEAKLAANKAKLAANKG

APC5383-AA = biological target: T37, APC5383-AA; assay: two-hybrid library CCmax; conditions: mean of both orientations
T37 chain: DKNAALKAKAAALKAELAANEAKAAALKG

APC2237-AA = biological target: T38, APC2237-AA; assay: two-hybrid library CCmax; conditions: mean of both orientations
T38 chain: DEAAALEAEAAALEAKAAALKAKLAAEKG

APC1434-AA = biological target: T39, APC1434-AA; assay: two-hybrid library CCmax; conditions: mean of both orientations
T39 chain: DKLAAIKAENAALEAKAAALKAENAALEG

APC4264-AA = biological target: T40, APC4264-AA; assay: two-hybrid library CCmax
T40 chain: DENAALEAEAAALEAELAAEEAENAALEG

APC1015-AA = biological target: T41, APC1015-AA; assay: two-hybrid library CCmax; conditions: mean of both orientations
T41 chain: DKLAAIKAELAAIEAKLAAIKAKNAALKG

interaction score (4H3855-bH): -0.899 | interaction score (4H3354-bH): -0.583 | interaction score (4H72-bH): -1.26 | interaction score (4H797-bH): -1.22 | interaction score (4H967-bH): -1.56 | interaction score (4H568-bH): -2.61 | interaction score (4H4001-bN): 0 | interaction score (4H908-bH): -0.797 | interaction score (4H953-bH): -1.21 | interaction score (4H331-bH): -0.701 | interaction score (4H883-bH): -0.72 | interaction score (4H454-bH): -1.16 | interaction score (4H607-bH): -0.833 | interaction score (4H3427-bH): -0.801 | interaction score (4H3782-bH): -0.522 | interaction score (4H3185-bH): 0.0268 | interaction score (4H338-bH): -0.56 | interaction score (4H717-bH): -0.724 | interaction score (4H687-bH): -0.899 | interaction score (4H918-bH): -1.09 | interaction score (4H754-bH): -1.15
Binder: DKNQELEKEIEELKRKNWELEKEIQELER [4H3185-bH]

interaction score (P8A-bH): 0.54 | interaction score (P9A-bH): -0.34
Binder: DKIQELKKENEELERKIWELKKENQELER [P8A-bH]

interaction score (P8A-bA): -0.497 | interaction score (P9A-bA): -0.256
Binder: DKIAQLKQENAELEQKIAELKWENAQLEQ [P8A-bA]

interaction score (APC9319-AA): -1.71 | interaction score (APC8191-AA): -2.1 | interaction score (APC4436-AA): -1.65 | interaction score (APC6108-AA): -1.43 | interaction score (APC9096-AA): -1.75 | interaction score (APC8910-AA): -1.59 | interaction score (APC232-AA): -1.73 | interaction score (APC2405-AA): -1.49 | interaction score (APC4011-AA): 1.45 | interaction score (APC3645-AA): -1.3 | interaction score (APC7099-AA): -1.32 | interaction score (APC5383-AA): -1.89 | interaction score (APC2237-AA): -1.21 | interaction score (APC1434-AA): -1.82 | interaction score (APC4264-AA): -1.72 | interaction score (APC1015-AA): -0.714
Binder: DEIAALKAKIAALEAKIAALEAKNAALEG [4H807-AA]
